Measured values from patent publication US6638503.

Columns and labels:
Human fibrinogen = Human fibrinogen (UniProt P02671)
[1] = tested on: bovine serum albumin, haemoglobin, fibrinogen and thrombin
Bovine serum albumin = Bovine serum albumin (UniProt P02769)
Sequence of Bovine serum albumin (P02769 25-607): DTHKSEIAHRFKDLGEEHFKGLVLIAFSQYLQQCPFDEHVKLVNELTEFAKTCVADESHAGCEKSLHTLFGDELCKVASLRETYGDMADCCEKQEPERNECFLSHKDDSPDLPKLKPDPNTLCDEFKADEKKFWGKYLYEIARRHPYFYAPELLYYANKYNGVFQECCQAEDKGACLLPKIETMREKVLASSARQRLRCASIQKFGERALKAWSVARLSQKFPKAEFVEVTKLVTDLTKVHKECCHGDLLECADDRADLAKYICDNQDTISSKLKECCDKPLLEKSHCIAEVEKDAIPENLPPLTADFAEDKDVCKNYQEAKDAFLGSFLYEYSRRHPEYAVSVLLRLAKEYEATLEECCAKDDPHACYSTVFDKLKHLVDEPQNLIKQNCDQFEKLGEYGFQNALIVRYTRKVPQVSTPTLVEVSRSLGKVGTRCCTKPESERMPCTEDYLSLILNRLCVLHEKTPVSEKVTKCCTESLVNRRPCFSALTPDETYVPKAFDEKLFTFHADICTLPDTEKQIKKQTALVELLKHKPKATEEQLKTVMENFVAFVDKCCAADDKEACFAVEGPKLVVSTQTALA

Sequence of plasminogen (chain, as listed by the source): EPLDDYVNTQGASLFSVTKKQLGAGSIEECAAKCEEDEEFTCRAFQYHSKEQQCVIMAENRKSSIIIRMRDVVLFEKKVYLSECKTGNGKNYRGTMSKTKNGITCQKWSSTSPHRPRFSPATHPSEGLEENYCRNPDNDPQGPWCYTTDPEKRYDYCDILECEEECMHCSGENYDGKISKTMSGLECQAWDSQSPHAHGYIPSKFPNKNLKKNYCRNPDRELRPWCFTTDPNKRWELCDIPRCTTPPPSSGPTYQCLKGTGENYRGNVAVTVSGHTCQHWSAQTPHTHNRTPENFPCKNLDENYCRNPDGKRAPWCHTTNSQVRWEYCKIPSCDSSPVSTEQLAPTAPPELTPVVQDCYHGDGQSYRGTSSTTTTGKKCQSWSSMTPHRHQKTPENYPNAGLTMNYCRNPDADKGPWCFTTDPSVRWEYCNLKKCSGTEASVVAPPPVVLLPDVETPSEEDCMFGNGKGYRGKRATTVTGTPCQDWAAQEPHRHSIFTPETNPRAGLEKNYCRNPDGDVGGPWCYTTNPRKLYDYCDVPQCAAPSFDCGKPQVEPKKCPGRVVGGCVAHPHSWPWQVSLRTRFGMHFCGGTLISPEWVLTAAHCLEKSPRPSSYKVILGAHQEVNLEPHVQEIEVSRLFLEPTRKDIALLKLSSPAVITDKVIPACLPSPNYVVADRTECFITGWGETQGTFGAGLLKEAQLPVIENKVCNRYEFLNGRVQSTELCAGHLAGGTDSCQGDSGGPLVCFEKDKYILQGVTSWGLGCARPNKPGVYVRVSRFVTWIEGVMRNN
Sequence of Human fibrinogen (P02671 20-629, chain 1 of 3): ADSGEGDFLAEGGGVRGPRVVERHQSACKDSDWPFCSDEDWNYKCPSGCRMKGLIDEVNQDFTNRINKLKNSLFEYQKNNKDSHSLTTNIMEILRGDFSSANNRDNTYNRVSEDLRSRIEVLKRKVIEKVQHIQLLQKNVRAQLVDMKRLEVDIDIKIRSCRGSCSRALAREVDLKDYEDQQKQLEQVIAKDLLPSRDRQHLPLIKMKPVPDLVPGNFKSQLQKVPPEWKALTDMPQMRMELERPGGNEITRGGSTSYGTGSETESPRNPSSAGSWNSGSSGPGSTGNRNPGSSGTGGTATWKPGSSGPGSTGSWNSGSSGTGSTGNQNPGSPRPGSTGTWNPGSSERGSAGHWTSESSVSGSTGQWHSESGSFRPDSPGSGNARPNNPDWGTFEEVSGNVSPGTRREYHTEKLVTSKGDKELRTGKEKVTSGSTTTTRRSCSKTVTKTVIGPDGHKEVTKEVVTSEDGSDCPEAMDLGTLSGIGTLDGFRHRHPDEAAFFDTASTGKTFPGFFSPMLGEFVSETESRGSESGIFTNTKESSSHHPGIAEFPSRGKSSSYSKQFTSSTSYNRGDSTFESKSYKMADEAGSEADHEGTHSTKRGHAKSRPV
Sequence of Human fibrinogen (chain, as listed by the source, chain 2 of 3): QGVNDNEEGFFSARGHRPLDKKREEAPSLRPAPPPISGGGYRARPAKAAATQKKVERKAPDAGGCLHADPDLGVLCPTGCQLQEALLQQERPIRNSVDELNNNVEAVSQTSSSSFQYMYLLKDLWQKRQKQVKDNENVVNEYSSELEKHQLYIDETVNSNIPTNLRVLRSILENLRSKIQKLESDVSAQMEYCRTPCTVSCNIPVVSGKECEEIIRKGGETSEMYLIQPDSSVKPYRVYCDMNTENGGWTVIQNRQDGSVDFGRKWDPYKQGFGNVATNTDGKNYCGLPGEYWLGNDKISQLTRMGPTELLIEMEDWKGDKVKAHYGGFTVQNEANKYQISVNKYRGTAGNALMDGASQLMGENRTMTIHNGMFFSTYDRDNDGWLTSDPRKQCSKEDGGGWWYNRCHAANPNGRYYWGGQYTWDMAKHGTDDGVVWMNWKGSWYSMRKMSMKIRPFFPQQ
Sequence of Human fibrinogen (chain, as listed by the source, chain 3 of 3): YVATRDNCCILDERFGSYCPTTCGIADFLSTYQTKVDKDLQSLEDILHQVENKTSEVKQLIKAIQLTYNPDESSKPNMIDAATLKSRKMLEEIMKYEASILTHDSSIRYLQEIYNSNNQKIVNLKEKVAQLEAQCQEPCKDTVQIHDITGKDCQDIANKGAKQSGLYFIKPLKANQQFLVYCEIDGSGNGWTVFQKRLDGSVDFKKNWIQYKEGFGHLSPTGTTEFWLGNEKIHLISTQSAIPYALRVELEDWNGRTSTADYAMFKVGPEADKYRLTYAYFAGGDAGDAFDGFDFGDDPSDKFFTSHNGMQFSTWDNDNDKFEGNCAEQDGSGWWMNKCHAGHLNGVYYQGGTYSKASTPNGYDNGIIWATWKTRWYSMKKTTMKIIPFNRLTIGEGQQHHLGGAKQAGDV

What does the source list for “actinokinase (fibrinolytic enzyme from Streptomyces megasporus SD5)”?
caseinolytic activity (casein): 1.0×10^2 µmole/tyrosine mg^-1 protein min^-1; Relative activity (%) (Human fibrinogen): 12%; Relative activity (%) (Hemoglobin): 8%; Relative activity (%) (Fibrin): 100%; fibrinolytic activity (Fibrin): 1.0×10^3 µmole/ tyrosine mg^-1 protein min^-1; Relative activity (%) (Thrombin): 27%; proteolytic activity, % of the control [1]: varied from 5-30% of the control; amidolytic activity with and without added plasminogen (plasminogen): Amydolytic activity exhibited by the enzyme was same in presence and absence of plasminogen; Relative activity (%) (Bovine serum albumin): 32%
